# T1: Abp1, P15891
# T1 sequence (P15891 535-592, looked up): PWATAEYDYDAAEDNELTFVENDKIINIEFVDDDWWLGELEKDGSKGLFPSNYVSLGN
# T2: Bbc1, P47068
# T2 sequence (P47068 1-78, looked up): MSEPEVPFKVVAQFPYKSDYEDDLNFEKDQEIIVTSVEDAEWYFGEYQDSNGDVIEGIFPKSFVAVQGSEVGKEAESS
# T3: Boi1, P38041
# T3 sequence (P38041 1-86, looked up): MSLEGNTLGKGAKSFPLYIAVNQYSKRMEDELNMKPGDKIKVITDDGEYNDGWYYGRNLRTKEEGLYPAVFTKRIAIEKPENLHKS
# T4: Boi2, P39969
# T4 sequence (P39969 32-116, looked up): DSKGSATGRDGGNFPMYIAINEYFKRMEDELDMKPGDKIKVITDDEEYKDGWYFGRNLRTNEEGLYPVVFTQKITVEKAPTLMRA
# T5: Bud14, P27637
# T5 sequence (P27637 247-328, looked up): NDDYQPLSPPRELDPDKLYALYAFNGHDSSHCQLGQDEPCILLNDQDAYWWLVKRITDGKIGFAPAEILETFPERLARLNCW
# T6: Bzz1-1, P38822
# T6 sequence (P38822 478-572, looked up): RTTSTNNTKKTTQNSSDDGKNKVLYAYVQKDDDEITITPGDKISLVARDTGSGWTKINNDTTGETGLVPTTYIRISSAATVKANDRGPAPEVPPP
# T7: Bzz1-2, P38822
# T7 sequence (P38822 568-633, looked up): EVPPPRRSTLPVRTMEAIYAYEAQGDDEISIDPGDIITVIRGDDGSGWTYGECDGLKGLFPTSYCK
# T8: Cdc25, P04821
# T8 sequence (P04821 50-136, looked up): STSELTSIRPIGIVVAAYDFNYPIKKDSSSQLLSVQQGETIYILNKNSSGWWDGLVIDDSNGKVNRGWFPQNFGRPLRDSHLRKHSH
# T9: Cyk3, Q07533
# T9 sequence (Q07533 1-83, looked up): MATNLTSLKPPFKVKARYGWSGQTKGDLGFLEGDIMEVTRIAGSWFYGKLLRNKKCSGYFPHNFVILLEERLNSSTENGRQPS
# T10: Fus1, P11710
# T10 sequence (P11710 432-512, looked up): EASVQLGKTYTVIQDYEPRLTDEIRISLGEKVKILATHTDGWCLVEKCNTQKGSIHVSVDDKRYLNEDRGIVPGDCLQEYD
# T11: Hof1, Q05080
# T11 sequence (Q05080 590-669, looked up): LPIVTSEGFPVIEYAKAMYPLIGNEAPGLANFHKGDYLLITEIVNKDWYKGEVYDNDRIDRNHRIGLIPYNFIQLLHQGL
# T12: Hse1, P38753
# T12 sequence (P38753 208-285, looked up): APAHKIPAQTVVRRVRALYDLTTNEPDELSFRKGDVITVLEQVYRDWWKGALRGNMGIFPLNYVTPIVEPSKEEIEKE
# T13: Lsb1, P53281
# T13 sequence (P53281 45-122, looked up): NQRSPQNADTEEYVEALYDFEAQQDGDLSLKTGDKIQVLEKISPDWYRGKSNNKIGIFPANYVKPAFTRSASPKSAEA
# T14: Lsb3, P43603
# T14 sequence (P43603 385-451, looked up): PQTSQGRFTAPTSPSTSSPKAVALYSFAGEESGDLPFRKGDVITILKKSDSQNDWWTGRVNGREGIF
# T15: Lsb4, P32793
# T15 sequence (P32793 402-468, looked up): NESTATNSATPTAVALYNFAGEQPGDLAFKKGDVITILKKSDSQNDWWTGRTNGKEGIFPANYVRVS
# T16: Myo5, Q04439
# T16 sequence (Q04439 1072-1160, looked up): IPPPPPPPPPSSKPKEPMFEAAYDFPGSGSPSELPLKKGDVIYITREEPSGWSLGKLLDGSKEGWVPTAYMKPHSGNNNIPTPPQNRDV
# T17: Nbp2, Q12163
# T17 sequence (Q12163 103-180, looked up): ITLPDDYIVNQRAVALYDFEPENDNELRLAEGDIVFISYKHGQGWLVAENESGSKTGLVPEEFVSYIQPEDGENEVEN
# T18: Pex13, P80667
# T18 sequence (P80667 295-386, looked up): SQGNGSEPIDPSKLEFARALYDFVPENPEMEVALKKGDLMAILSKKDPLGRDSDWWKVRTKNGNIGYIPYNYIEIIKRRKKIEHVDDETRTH
# T19: Pin3, Q06449
# T19 sequence (Q06449 53-122, looked up): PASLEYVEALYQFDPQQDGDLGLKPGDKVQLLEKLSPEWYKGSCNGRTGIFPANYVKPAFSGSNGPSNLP
# T20: Sla1-2, P32790
# T20 sequence (P32790 60-140, looked up): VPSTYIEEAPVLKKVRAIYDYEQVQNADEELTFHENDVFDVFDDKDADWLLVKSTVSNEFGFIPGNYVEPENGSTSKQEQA
# T21: Sla1-3, P32790
# T21 sequence (P32790 344-424, looked up): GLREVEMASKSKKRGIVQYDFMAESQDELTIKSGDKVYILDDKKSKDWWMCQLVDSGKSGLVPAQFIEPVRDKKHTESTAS
# Tests used:
# Experiment in all cases: SPOT array
# Abp1, P15891 = molecular target: T1, Abp1, P15891; conditions: median of control spots 935
# Bbc1, P47068 = molecular target: T2, Bbc1, P47068; conditions: median of control spots 796
# Bem1-1, P29366 = conditions: median of control spots 4282
# Chain of Bem1-1, P29366 (P29366 55-141): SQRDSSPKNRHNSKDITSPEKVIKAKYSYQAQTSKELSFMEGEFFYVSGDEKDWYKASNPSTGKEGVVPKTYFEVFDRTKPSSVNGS
# Bem1-2, P29366 = conditions: median of control spots 4347
# Chain of Bem1-2, P29366 (P29366 139-227): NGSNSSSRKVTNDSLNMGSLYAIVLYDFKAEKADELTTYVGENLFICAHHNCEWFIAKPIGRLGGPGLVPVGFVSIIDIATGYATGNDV
# Boi1, P38041 = molecular target: T3, Boi1, P38041; conditions: median of control spots 1162
# Boi2, P39969 = molecular target: T4, Boi2, P39969; conditions: median of control spots 1161
# Bud14, P27637 = molecular target: T5, Bud14, P27637; conditions: median of control spots 956
# Bzz1-1, P38822 = molecular target: T6, Bzz1-1, P38822; conditions: median of control spots 4446
# Bzz1-2, P38822 = molecular target: T7, Bzz1-2, P38822; conditions: median of control spots 4538
# Cdc25, P04821 = molecular target: T8, Cdc25, P04821; conditions: median of control spots 969
# Cyk3, Q07533 = molecular target: T9, Cyk3, Q07533; conditions: median of control spots 1451
# Fus1, P11710 = molecular target: T10, Fus1, P11710; conditions: median of control spots 1200
# GST = conditions: median of control spots 978
# Hof1, Q05080 = molecular target: T11, Hof1, Q05080; conditions: median of control spots 4086
# Hse1, P38753 = molecular target: T12, Hse1, P38753; conditions: median of control spots 1727
# Lsb1, P53281 = molecular target: T13, Lsb1, P53281; conditions: median of control spots 388
# Lsb3, P43603 = molecular target: T14, Lsb3, P43603; conditions: median of control spots 406
# Lsb4, P32793 = molecular target: T15, Lsb4, P32793; conditions: median of control spots 397
# Myo3, P36006 = conditions: median of control spots 468
# Myo5, Q04439 = molecular target: T16, Myo5, Q04439; conditions: median of control spots 471
# Nbp2, Q12163 = molecular target: T17, Nbp2, Q12163; conditions: median of control spots 357
# Pex13, P80667 = molecular target: T18, Pex13, P80667; conditions: median of control spots 1341
# Pin3, Q06449 = molecular target: T19, Pin3, Q06449; conditions: median of control spots 2171
# Rvs167, P39743 = conditions: median of control spots 2707
# Chain of Rvs167, P39743 (P39743 419-482): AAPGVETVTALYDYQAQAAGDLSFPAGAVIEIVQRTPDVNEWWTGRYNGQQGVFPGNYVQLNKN
# Sho1, P40073 = conditions: median of control spots 1148
# Chain of Sho1, P40073 (P40073 287-367): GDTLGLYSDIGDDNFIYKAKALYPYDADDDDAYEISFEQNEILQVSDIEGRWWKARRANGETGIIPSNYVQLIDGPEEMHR
# Sla1-2, P32790 = molecular target: T20, Sla1-2, P32790; conditions: median of control spots 712
# Sla1-3, P32790 = molecular target: T21, Sla1-3, P32790; conditions: median of control spots 5475
Binder,"SPOT intensity (Abp1, P15891)","SPOT intensity (Bbc1, P47068)","SPOT intensity (Bem1-1, P29366)","SPOT intensity (Bem1-2, P29366)","SPOT intensity (Boi1, P38041)","SPOT intensity (Boi2, P39969)","SPOT intensity (Bud14, P27637)","SPOT intensity (Bzz1-1, P38822)","SPOT intensity (Bzz1-2, P38822)","SPOT intensity (Cdc25, P04821)","SPOT intensity (Cyk3, Q07533)","SPOT intensity (Fus1, P11710)",SPOT intensity (GST),"SPOT intensity (Hof1, Q05080)","SPOT intensity (Hse1, P38753)","SPOT intensity (Lsb1, P53281)","SPOT intensity (Lsb3, P43603)","SPOT intensity (Lsb4, P32793)","SPOT intensity (Myo3, P36006)","SPOT intensity (Myo5, Q04439)",also measured
ITHRLRISIPGITGR,118,24,0,6,1,1,8,1,0,29,0,39,0,1,11,231,9,5,37,4,"SPOT intensity (Nbp2, Q12163): 32; SPOT intensity (Pex13, P80667): 32; SPOT intensity (Pin3, Q06449): 69; SPOT intensity (Rvs167, P39743): 0; SPOT intensity (Sho1, P40073): 191; SPOT intensity (Sla1-2, P32790): 4; SPOT intensity (Sla1-3, P32790): 2"
LLLLFVPDSPYDPAI,0,0,0,0,1,0,3,0,0,0,0,1,1,0,0,0,0,0,0,0,"SPOT intensity (Nbp2, Q12163): 1; SPOT intensity (Pex13, P80667): 0; SPOT intensity (Pin3, Q06449): 0; SPOT intensity (Rvs167, P39743): 0; SPOT intensity (Sho1, P40073): 0; SPOT intensity (Sla1-2, P32790): 0; SPOT intensity (Sla1-3, P32790): 2"
VLRFLGFPLPIFEKG,19,30,0,2,1,1,17,0,0,28,7,78,0,4,6,0,0,0,1,0,"SPOT intensity (Nbp2, Q12163): 41; SPOT intensity (Pex13, P80667): 4; SPOT intensity (Pin3, Q06449): 3; SPOT intensity (Rvs167, P39743): 0; SPOT intensity (Sho1, P40073): 43; SPOT intensity (Sla1-2, P32790): 0; SPOT intensity (Sla1-3, P32790): 0"
GERSRPLVISILSSA,16,0,0,0,2,0,14,3,1,16,0,3,0,0,0,0,0,4,5,0,"SPOT intensity (Nbp2, Q12163): 2; SPOT intensity (Pex13, P80667): 39; SPOT intensity (Pin3, Q06449): 26; SPOT intensity (Rvs167, P39743): 0; SPOT intensity (Sho1, P40073): 38; SPOT intensity (Sla1-2, P32790): 1; SPOT intensity (Sla1-3, P32790): 0"
